What is called Km is the substrate concentration at which the rate is half of its maximum. A word on the kcat: it is the number of substrate molecules converted per active site and unit of time at saturation. For orientation: kcat/Km means the turnover number divided by the Michaelis constant.

One data set concerns the target T1, BglM-G1 (marine metagenome, UniProt Z9E642Q5N2).
T1 construct: codon-optimised synthetic gene in pOE, E. coli BL21(DE3); N-terminal MHHHHHHENLYFQGH tag TEV-cleaved, scar GH; theoretical mass 49,874 Da; monomer in solution
T1 sequence (Z9E642Q5N2 16-455 H90R): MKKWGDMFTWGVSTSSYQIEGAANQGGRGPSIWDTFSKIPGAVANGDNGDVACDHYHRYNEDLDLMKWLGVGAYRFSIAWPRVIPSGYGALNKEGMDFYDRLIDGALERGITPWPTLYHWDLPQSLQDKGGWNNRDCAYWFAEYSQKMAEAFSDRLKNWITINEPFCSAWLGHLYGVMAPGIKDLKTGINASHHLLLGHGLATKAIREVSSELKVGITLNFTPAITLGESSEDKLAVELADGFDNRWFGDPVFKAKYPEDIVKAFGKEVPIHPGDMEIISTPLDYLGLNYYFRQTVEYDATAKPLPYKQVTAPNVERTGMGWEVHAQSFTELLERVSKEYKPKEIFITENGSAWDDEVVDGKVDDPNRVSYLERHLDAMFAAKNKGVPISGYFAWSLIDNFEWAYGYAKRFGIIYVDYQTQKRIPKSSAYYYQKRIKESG
The experiment in a line: X-ray crystal structure, […] Å, soaked crystals. The data set is classed as binding. To be noted: 6 mM ligand soak 24 h, pH 7.5, 18 °C; active site.

Data set [1] has as its system C[C@H]1O[C@@H](Oc2ccc([N+](=O)[O-])cc2)[C@H](O)[C@@H](O)[C@H]1O. The experiment in a line: purified protein. To be noted: 100 mM sodium citrate pH 6.0, 45 °C.
Data set [2] deals with O=[N+]([O-])c1ccc(O[C@@H]2O[C@H](CO)[C@@H](O)[C@H](O)[C@H]2O)cc1. The experiment in a line: purified protein. To be noted: 100 mM sodium citrate pH 6.0, 45 °C.

As to `OC[C@H]1NC[C@H](O)[C@@H](O)[C@@H]1O` [1-deoxynojirimycin], at BglM-G1, the “X-ray crystal structure, 1.55 Å, soaked crystals” value is reported as “we co-crystallized the H75R variant with the glucosidase inhibitor 1-deoxynojirimycin”.
As to BglM-G1 (marine metagenome), in data set [1], the Michaelis-Menten constant (Km) is 88 ± 38 µM, the turnover number (kcat) came out at 41.4 ± 3 s⁻¹ and the kcat/Km came to 519000 ± 146000 M⁻¹ s⁻¹. In data set [2], the Km is recorded as 135 ± 16 µM, the kcat was 55.6 ± 1.5 s⁻¹ and the kcat/Km was 417000 ± 44000 M⁻¹ s⁻¹.

For the origin of these results see paper PMC6192996, “Loss of a conserved salt bridge in bacterial glycosyl hydrolase BgIM-G1 improves substrate binding in temperate environments” (Communications Biology, 2018).
